Experiment [1] addresses T1, human PrRP receptor GPR10 (human, UniProt P49683 1-370).
T1 construct: whole, on cells; also called GPR10 human receptor transfected in CHO cells; human GPR10 receptor
T1 sequence (looked up): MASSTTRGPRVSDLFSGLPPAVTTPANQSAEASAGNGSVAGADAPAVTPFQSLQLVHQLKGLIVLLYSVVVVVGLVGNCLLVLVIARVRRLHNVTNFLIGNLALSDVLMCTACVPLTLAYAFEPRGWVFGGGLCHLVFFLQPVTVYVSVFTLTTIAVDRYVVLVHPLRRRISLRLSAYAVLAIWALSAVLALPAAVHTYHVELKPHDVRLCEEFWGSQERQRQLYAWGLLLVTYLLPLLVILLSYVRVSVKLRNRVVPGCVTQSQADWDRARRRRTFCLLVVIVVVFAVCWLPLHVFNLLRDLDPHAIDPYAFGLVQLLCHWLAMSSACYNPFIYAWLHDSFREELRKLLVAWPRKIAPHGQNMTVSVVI
Put plainly: competition with 125I-human PrRP31, CHO cells with human GPR10. The protocol: CHO cells transfected with human PrRP receptor GPR10 (Perkin Elmer, USA) were grown on 24-well plates coated with polyethyleneimine. […] The following agents were used for the experiment: binding buffer (25 mmol.1⁻¹ Tris, pH 7.4; 118 mmol.1⁻¹ NaCl, 10 mmol.1⁻¹ MgCl₂, 1 mmol.1⁻¹ CaCl₂, 5.5 mmol.1⁻¹ glucose, 0.5 mg/ml BSA), unlabeled analogs of PrRP (i.e. the analog being tested) at a final concentration between 10⁻¹¹ to 10⁻⁴ mol.1⁻¹, and radiolabeled human ¹²⁵1-PrRP31 at a final concentration of 5×10⁻¹¹ mol.1⁻¹.
(§1) Plates were incubated for 60 minutes at room temperature. After incubation, the cells were solubilized in 0.1 mol/l solution of NaOH, and the radioactivity bound to the cells was counted using a γ-counter. The experiments were performed in duplicate, and repeated at least three times.

The target in experiment [2] is T2, rat PrRP receptor in RC-4B/C cells (rat, UniProt Q64121 1-370).
T2 construct: whole, on cells; endogenous receptor of RC-4B/C cells (ATCC); also called rat receptor; GPR10 receptor expressed in rat hypophyseal cells
T2 sequence (looked up): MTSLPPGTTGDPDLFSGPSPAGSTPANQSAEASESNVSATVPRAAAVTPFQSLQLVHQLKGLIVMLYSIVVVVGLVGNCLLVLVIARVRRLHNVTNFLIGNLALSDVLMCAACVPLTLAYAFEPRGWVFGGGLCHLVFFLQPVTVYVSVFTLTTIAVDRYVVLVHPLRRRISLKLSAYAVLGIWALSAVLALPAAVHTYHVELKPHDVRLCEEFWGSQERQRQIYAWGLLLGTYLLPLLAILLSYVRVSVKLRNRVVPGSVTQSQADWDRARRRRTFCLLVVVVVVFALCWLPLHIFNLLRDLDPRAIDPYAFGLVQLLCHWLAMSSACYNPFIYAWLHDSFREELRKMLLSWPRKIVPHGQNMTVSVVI
Kind of experiment: competition with 125I-rat PrRP31, RC-4B/C cells. The protocol:
The rat pituitary cell line RC-4B/C (ATCC, Manassas, USA) was grown on 24-well plates which had their bottom coated with polyethyleneimine. The cells were grown to the optimal density of 300-450 thousand cells per well.
as §1

Numbered stars: 1 amine (or outer) side, 2 acyl side, 3 side chain; on linkers, the order of the positions; unused ones are H or OH. Square brackets hold non-standard residues; d marks the D form. Side chains are listed from the residue outwards. Ends that are not written are not given here. * marks the point of attachment. γGlu = O=C(O)[C@H](CCC(=O)[*:2])N[*:1]; Palmitoyl = CCCCCCCCCCCCCCCC(=O)*; Myristoyl = CCCCCCCCCCCCCC(=O)*; NMeA = CN[C@@H](C)C(=O)O

B1: analog no. 29 (peptide)
peptide: TPDINPAWY[NMeA]SRGIRPVGRF-NH2
modifications: N-terminus assumed
SMILES: CC[C@H](C)[C@H](NC(=O)CNC(=O)[C@H](CCCNC(=N)N)NC(=O)[C@H](CO)NC(=O)[C@H](C)N(C)C(=O)[C@H](Cc1ccc(O)cc1)NC(=O)[C@H](Cc1c[nH]c2ccccc12)NC(=O)[C@H](C)NC(=O)[C@@H]1CCCN1C(=O)[C@H](CC(N)=O)NC(=O)[C@@H](NC(=O)[C@H](CC(=O)O)NC(=O)[C@@H]1CCCN1C(=O)[C@@H](N)[C@@H](C)O)[C@@H](C)CC)C(=O)N[C@@H](CCCNC(=N)N)C(=O)N1CCC[C@H]1C(=O)N[C@H](C(=O)NCC(=O)N[C@@H](CCCNC(=N)N)C(=O)N[C@@H](Cc1ccccc1)C(N)=O)C(C)C
In the case of B1, in experiment [1], the “% of PrRP31” value was determined as 45% and the Ki (as a rule, a dissociation constant, usually derived from enzyme kinetics or from competition with a known ligand) is 8.72 nM. In addition, in experiment [2], the “% of PrRP31” value was found to be 10% and the affinity, expressed as Ki, was 49.4 nM.
Take TPDINPAWYTGRGIRPVGRF-NH2 (synthetic peptide) [Rat PrRP20]: in experiment [1], the “% of PrRP31” value is 70% and the inhibition constant Ki came to 5.56 nM. Also, in experiment [2], the “% of PrRP31” value came out at 143% and the Ki amounted to 3.44 nM.

B2: analog no. 32 (peptide)
peptide: Myristoyl-TPDINPAWYTGRGARPFGRF-NH2
SMILES: CCCCCCCCCCCCCC(=O)N[C@H](C(=O)N1CCC[C@H]1C(=O)N[C@@H](CC(=O)O)C(=O)N[C@H](C(=O)N[C@@H](CC(N)=O)C(=O)N1CCC[C@H]1C(=O)N[C@@H](C)C(=O)N[C@@H](Cc1c[nH]c2ccccc12)C(=O)N[C@@H](Cc1ccc(O)cc1)C(=O)N[C@H](C(=O)NCC(=O)N[C@@H](CCCNC(=N)N)C(=O)NCC(=O)N[C@@H](C)C(=O)N[C@@H](CCCNC(=N)N)C(=O)N1CCC[C@H]1C(=O)N[C@@H](Cc1ccccc1)C(=O)NCC(=O)N[C@@H](CCCNC(=N)N)C(=O)N[C@@H](Cc1ccccc1)C(N)=O)[C@@H](C)O)[C@@H](C)CC)[C@@H](C)O
B2: in experiment [1], the “% of PrRP31” value turned out to be 46% and the inhibition constant Ki amounted to 8.47 nM. Moreover, in experiment [2], the “% of PrRP31” value is 68% and the affinity, expressed as Ki, was 7.21 nM.
Take TPDINPAWYTGRGARPFGRF-NH2 [analog no. 31]: the “% of PrRP31” value was found to be 0.7% in experiment [1] and 0.8% in experiment [2]. For the same molecule, the Ki in experiment [1] was 583 nM; in experiment [2] it was 655 nM.
As for TPDINPAWYASRPFRPVGRF-NH2 [analog no. 33], the “% of PrRP31” value in experiment [1] turned out to be 225%; in experiment [2], 230%. The Ki in experiment [1] stood at 1.73 nM; in experiment [2], 2.14 nM.

B3: analog no. 34 (peptide)
peptide: Myristoyl-TPDINPAWYASRPFRPVGRF-NH2
SMILES: CCCCCCCCCCCCCC(=O)N[C@H](C(=O)N1CCC[C@H]1C(=O)N[C@@H](CC(=O)O)C(=O)N[C@H](C(=O)N[C@@H](CC(N)=O)C(=O)N1CCC[C@H]1C(=O)N[C@@H](C)C(=O)N[C@@H](Cc1c[nH]c2ccccc12)C(=O)N[C@@H](Cc1ccc(O)cc1)C(=O)N[C@@H](C)C(=O)N[C@@H](CO)C(=O)N[C@@H](CCCNC(=N)N)C(=O)N1CCC[C@H]1C(=O)N[C@@H](Cc1ccccc1)C(=O)N[C@@H](CCCNC(=N)N)C(=O)N1CCC[C@H]1C(=O)N[C@H](C(=O)NCC(=O)N[C@@H](CCCNC(=N)N)C(=O)N[C@@H](Cc1ccccc1)C(N)=O)C(C)C)[C@@H](C)CC)[C@@H](C)O
B3: in experiment [1], the “% of PrRP31” value worked out at 671% and the Ki came out at 0.58 nM. In experiment [2], the “% of PrRP31” value amounted to 587% and the Ki turned out to be 0.84 nM.

B4: analog no. 1 (peptide)
peptide: Myristoyl-TPDINPAWYTGRGIRPVGRF-NH2
SMILES: CCCCCCCCCCCCCC(=O)N[C@H](C(=O)N1CCC[C@H]1C(=O)N[C@@H](CC(=O)O)C(=O)N[C@H](C(=O)N[C@@H](CC(N)=O)C(=O)N1CCC[C@H]1C(=O)N[C@@H](C)C(=O)N[C@@H](Cc1c[nH]c2ccccc12)C(=O)N[C@@H](Cc1ccc(O)cc1)C(=O)N[C@H](C(=O)NCC(=O)N[C@@H](CCCNC(=N)N)C(=O)NCC(=O)N[C@H](C(=O)N[C@@H](CCCNC(=N)N)C(=O)N1CCC[C@H]1C(=O)N[C@H](C(=O)NCC(=O)N[C@@H](CCCNC(=N)N)C(=O)N[C@@H](Cc1ccccc1)C(N)=O)C(C)C)[C@@H](C)CC)[C@@H](C)O)[C@@H](C)CC)[C@@H](C)O
Take B4: in experiment [1], the “% of PrRP31” value is 133% and affinity was put at a Ki of 2.93 nM. Moreover, in experiment [2], the “% of PrRP31” value is 632% and the inhibitory constant (Ki) was found to be 0.78 nM.

B5: analog no. 30 (peptide)
peptide: Myristoyl-TPDINPAWY[NMeA]SRGIRPVGRF-NH2
SMILES: CCCCCCCCCCCCCC(=O)N[C@H](C(=O)N1CCC[C@H]1C(=O)N[C@@H](CC(=O)O)C(=O)N[C@H](C(=O)N[C@@H](CC(N)=O)C(=O)N1CCC[C@H]1C(=O)N[C@@H](C)C(=O)N[C@@H](Cc1c[nH]c2ccccc12)C(=O)N[C@@H](Cc1ccc(O)cc1)C(=O)N(C)[C@@H](C)C(=O)N[C@@H](CO)C(=O)N[C@@H](CCCNC(=N)N)C(=O)NCC(=O)N[C@H](C(=O)N[C@@H](CCCNC(=N)N)C(=O)N1CCC[C@H]1C(=O)N[C@H](C(=O)NCC(=O)N[C@@H](CCCNC(=N)N)C(=O)N[C@@H](Cc1ccccc1)C(N)=O)C(C)C)[C@@H](C)CC)[C@@H](C)CC)[C@@H](C)O
Regarding B5, in experiment [1], the “% of PrRP31” value was 185% and the Ki stood at 2.1 nM. For the same molecule, in experiment [2], the “% of PrRP31” value turned out to be 1070% and the Ki stood at 0.46 nM.
For the molecule SRTHRHSMEIK([γGlu-Palmitoyl])TPDINPAWYASRGIRPVGRF-NH2 (also called compound 52) [analog no. 52], in experiment [1], the “% of PrRP31” value was 65% and the affinity corresponds to a Ki of 5.95 nM. Also, in experiment [2], the “% of PrRP31” value came out at 57% and the affinity, expressed as Ki, was 4.23 nM.
SETHRHSMEIKTPDINPAWYASRGIRPVGRF (K(N-POE(N-palm)) at residue 11; C-terminal amide) [analog no. 58]: in experiment [1], the “% of PrRP31” value stood at 103% and affinity was put at a Ki of 3.79 nM. In addition, in experiment [2], the “% of PrRP31” value is 575% and the Ki was determined as 0.41 nM.
On to SRTHRHSMEIRTPDINPAWYASRGIRPVGRF-NH2 (synthetic peptide) [Human PrRP31], for which the “% of PrRP31” value in experiment [1] is 86%; in experiment [2], 207%. The same molecule had a Ki in experiment [2] of 2.38 nM.

B6: analog no. 42 (peptide)
peptide: Myristoyl-SRTHRHSMEIRTPDINPAWYASRGIRPVGRF-NH2
SMILES: CCCCCCCCCCCCCC(=O)N[C@@H](CO)C(=O)N[C@@H](CCCNC(=N)N)C(=O)N[C@H](C(=O)N[C@@H](Cc1c[nH]cn1)C(=O)N[C@@H](CCCNC(=N)N)C(=O)N[C@@H](Cc1c[nH]cn1)C(=O)N[C@@H](CO)C(=O)N[C@@H](CCSC)C(=O)N[C@@H](CCC(=O)O)C(=O)N[C@H](C(=O)N[C@@H](CCCNC(=N)N)C(=O)N[C@H](C(=O)N1CCC[C@H]1C(=O)N[C@@H](CC(=O)O)C(=O)N[C@H](C(=O)N[C@@H](CC(N)=O)C(=O)N1CCC[C@H]1C(=O)N[C@@H](C)C(=O)N[C@@H](Cc1c[nH]c2ccccc12)C(=O)N[C@@H](Cc1ccc(O)cc1)C(=O)N[C@@H](C)C(=O)N[C@@H](CO)C(=O)N[C@@H](CCCNC(=N)N)C(=O)NCC(=O)N[C@H](C(=O)N[C@@H](CCCNC(=N)N)C(=O)N1CCC[C@H]1C(=O)N[C@H](C(=O)NCC(=O)N[C@@H](CCCNC(=N)N)C(=O)N[C@@H](Cc1ccccc1)C(N)=O)C(C)C)[C@@H](C)CC)[C@@H](C)CC)[C@@H](C)O)[C@@H](C)CC)[C@@H](C)O
Consider B6, for which the “% of PrRP31” value in experiment [1] came to 83%. Besides, in experiment [2], the “% of PrRP31” value was 1030% and affinity was put at a Ki of 0.48 nM.

B7: analog no. 54 (peptide)
peptide: SRTHRHSMEIRTPDINPAWYASRGIRPVGRF
modifications: (N-palm)γ-E at the N-terminus (palmitoyl through gamma-glutamic acid); C-terminal amide
In the case of B7, in experiment [1], the “% of PrRP31” value is 57%. Also, in experiment [2], the “% of PrRP31” value was 119% and the Ki came out at 0.5 nM.

The record behind these values is patent US20150196651A1 (published 2015).
